Assay results published in publication PMC5676521.

Substrate: C[S+](CC[C@H](N)C(=O)[O-])C[C@H]1O[C@@H](n2cnc3c(N)ncnc32)[C@H](O)[C@@H]1O
Test: purified protein
Conditions: varied: cofactor

B1: PRMT7 (TbPRMT7) (Trypanosoma brucei brucei TREU927) (protein)
chain: MPPKQHRHQKKDKNDNALQNTIGFVPPGATLASVSGYRPPDAFVNRIDRNIPVPARLRHTPVSLIEAVNDFHYAMMNDEERNNFYYEVLKKHVTPETGVLEIGAGSGLLSLMAAKLGAKWVVAVEGSEELAKLARENIRANNMEHQVKVLHMMSTELKSKHLPEPPDVLLSEIFGTMMLGESALDYVVDVRNRLLKPTTKIIPQFGTQYAVPIECDALHRISSVSGWRDLDLKHMMTLQDTVSIVFAKHYGIRMNSVNFRRLSDPIELFRVDFSSSNRNDIPRRKHFDVVAKESGTAHAMLFYWKVTDDEFVMSTDPEDTVNNFPRDMQWGQALQLLDASNGPLPTPVVFTEGKNYNFECNFSGDRVILHMQLCPESGNGEMTECEGKTT
Work on B1 yielded a Km of 1.1 ± 0.2 µM and a kcat of 22.3 ± 0.6 h^–1.
